Laboratory results: PMC11024254, “The DmsABC S-oxide reductase is an essential component of a novel, hypochlorite-inducible system of extracellular stress defense in Haemophilus influenzae” (Frontiers in Microbiology, 2024)

How the values were obtained:
[O-][n+]1cccnc1 = purified protein; settings: purified enzyme, 0.2 mM methyl viologen, 0.3 mM dithionite, 20 mM sodium phosphate pH 6.8, 37°C
NC(=O)c1ccc[n+]([O-])c1 = assay: purified protein; settings: purified enzyme, 0.2 mM methyl viologen, 0.3 mM dithionite, 20 mM sodium phosphate pH 6.8, 37°C

Substance: MtsZ (HiMtsZ) (Haemophilus influenzae Rd KW20)
- Km ([O-][n+]1cccnc1): 35 ± 8 µM
- kcat ([O-][n+]1cccnc1): 33.2 ± 2.7 s⁻¹
- Km (NC(=O)c1ccc[n+]([O-])c1): 46 ± 8 µM
- kcat (NC(=O)c1ccc[n+]([O-])c1): 93 ± 5 s⁻¹
